Results: patent publication US20190106487A1 (Sanofi, published 2019)

What was measured:
rhIL-1RAcP/Fc Chimera [1] = molecular target: T1, rhIL-1RAcP/Fc Chimera (human, UniProt Q9NPH3 21-359); experiment: ELISA, recombinant purified mAb
T1 construct: also called P013_03; P013-03
T1 sequence (looked up): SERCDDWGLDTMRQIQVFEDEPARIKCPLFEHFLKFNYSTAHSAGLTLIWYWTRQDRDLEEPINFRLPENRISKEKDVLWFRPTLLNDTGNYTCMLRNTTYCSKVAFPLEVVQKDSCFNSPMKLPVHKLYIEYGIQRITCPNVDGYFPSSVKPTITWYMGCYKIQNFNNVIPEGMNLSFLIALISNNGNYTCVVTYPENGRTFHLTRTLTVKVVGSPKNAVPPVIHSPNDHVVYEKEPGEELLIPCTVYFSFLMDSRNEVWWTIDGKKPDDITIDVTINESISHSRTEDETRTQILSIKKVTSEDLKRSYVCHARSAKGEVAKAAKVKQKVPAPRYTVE

[2] = molecular target: T2, human IL-1RAcP on 293T/17-FR cells (human, UniProt Q9NPH3 21-570); experiment: cell-based or functional assay
T2 sequence (looked up): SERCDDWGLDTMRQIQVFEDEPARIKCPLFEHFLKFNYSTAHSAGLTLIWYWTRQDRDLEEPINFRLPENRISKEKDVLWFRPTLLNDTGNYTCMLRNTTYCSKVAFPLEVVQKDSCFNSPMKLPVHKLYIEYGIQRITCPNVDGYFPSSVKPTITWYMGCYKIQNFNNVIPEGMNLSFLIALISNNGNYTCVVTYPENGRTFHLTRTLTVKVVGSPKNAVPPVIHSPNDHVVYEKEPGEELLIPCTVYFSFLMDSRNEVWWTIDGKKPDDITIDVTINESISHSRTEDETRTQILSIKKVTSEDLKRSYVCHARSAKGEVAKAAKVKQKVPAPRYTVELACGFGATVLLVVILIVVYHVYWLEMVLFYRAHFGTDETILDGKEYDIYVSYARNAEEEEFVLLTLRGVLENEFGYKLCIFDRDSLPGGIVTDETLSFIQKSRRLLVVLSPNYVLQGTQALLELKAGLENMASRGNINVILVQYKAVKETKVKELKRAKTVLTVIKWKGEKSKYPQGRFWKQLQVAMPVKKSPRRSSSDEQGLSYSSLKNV

mIL1RAcP-Fc [3] = molecular target: T3, mIL1RAcP-Fc (murine, UniProt Q61730 21-359); experiment: ELISA, primary supernatant, coated mu-IL-1RAcP-Fc
T3 construct: also called P013_04; P013-04
T3 sequence (looked up): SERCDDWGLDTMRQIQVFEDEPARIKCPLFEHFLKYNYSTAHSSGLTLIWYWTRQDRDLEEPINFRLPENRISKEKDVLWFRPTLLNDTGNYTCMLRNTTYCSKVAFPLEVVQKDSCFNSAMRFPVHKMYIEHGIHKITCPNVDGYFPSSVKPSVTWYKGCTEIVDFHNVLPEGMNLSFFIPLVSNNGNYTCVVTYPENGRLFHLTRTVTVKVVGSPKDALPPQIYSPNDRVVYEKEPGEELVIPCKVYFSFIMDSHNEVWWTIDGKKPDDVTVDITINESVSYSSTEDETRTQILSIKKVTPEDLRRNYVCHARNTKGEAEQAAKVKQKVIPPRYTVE

rhIL-1RAcP/Fc Chimera [4] = molecular target: T1, rhIL-1RAcP/Fc Chimera; experiment: ELISA, primary supernatant, coated hu-IL-1RAcP-Fc
Summary of the method: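 Plates coated with 0.5 μg/mL Fc-tagged human IL-1RAcP; rabbit B-cell supernatant antibodies detected by peroxidase anti-rabbit IgG Fab2 and TMB, absorbance 450/620 nm. Parallel IL12Rβ1-Fc coating served as counterscreen to exclude tag binders.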

mIL1RAcP-Fc [5] = molecular target: T3, mIL1RAcP-Fc; experiment: ELISA, recombinant purified mAb

Binder | EC50 (rhIL-1RAcP/Fc Chimera [1]) [µg/mL] | functional reporter gene assay (% inhibition), 0.04 µg/mL mAb [2] [%] | functional reporter gene assay (% inhibition), 0.2 µg/mL mAb [2] [%] | functional reporter gene assay (% inhibition), 1 µg/mL mAb [2] [%] | functional reporter gene assay (% inhibition), 5 µg/mL mAb [2] [%] | primary supernatant functional assay (% inh.), NF-kB luciferase reporter [2] [%] | mu-IL1RaP ELISA (OD) (mIL1RAcP-Fc [3]) | hu-IL1RaP ELISA (OD) (rhIL-1RAcP/Fc Chimera [4]) | EC50 (mIL1RAcP-Fc [5]) [µg/mL]
P013.S.01.B.E03 (antibody, V domains shown, rabbit monoclonal antibody; also called P013.A.00015.E03) VH: QSLEESGGRLVTPGTPLTLTCTASGFSITNYHISWVRQAPGKGLEWIGYIYAGRDFTYYANWAEGRFTISKTSTTVDLQVTVPTTEDTATYFCARDGGSPNWTLDLWGQGTLVTVSS VL: DVVMTQTPASVSEPVGGTVTINCQASESISDYLSWYQQKPGQPPKLLIYRASTLESGVSSRFKGSGSGTQFTLTISDLESADAATYYCQSNYYDSRGNAFGGGTEVVVK | 0.05 | 54 | 63 | 60 | 68 | 73 | 0.1 | 3.4 | –
P013.S.02.B.D02 (antibody, V domains shown, rabbit monoclonal antibody; also called P013.A.00086.F05) VH: QSLEESGGDLVKPGASLKLSCTASGVSFSSAYWMCWVRQAPGKGLEWIACIYAGSSGSTYYASWAKGRFTISKTSSTTVTLQMTSLTAADTATYFCARHAAWFELDLWGPGTLVTVSS VL: ALVMTQTPSPVSAAVGGTVTINCQASQNIASAYLSWYQQKPGQPPKLLIYAASTLTDGVPSRFKGSGSVTEFTLTISGVQSDDAATYYCAGYKSYTDDEFAFGGGTEVVVK | 0.541 | 1 | 22 | 58 | 79 | 85 | 0 | 3.3 | –
P013.S.01.B.E05 (antibody, V domains shown, rabbit monoclonal antibody; also called P013.A.00086.F02) VH: QSLEESGGDLVKPGASLTLTCTASGISFSSSDFMCWVRQAPGKGLEWIACIYAGSSVSIYYATWAKGRFTISKASSTTVTLQMASLTVADTATYFCARSTGSVGRGFNLWGQGTLVTVSS VL: AQVLTQTPSPVSAAVGGTVTISCQASQSVYNSNHLSWYQQKPGQPPRLLIYSASTLASGVPSRFKGSGSGTQFTLTISGVQSDDAATYYCQGEFSCVSADCIAFGGGTEVVVK | 0.966 | 26 | 61 | 81 | 93 | 98 | -0.1 | 3.6 | –
P013.S.01.B.D04 (antibody, V domains shown, rabbit monoclonal antibody; also called P013.A.00088.B09) VH: QEQLKESGGRLVTPGGSLTLTCTVSGFSLSIYAMGWFRQAPGKGLEWIGDIYPGSDSTWYASWAKGRFTISKTSTTVDLKITSPTTEDTATYFCAREIDAGYVGYGFDLWGQGTLVTVSS VL: AQALTQTPSSVSAAVGGTVTINCQSSQSVYSDYLAWYQQKPGQSPKLLIYKASKLASGVPSRFKGSGSGTEFTLTISGVQSDDAATYYCQATYYSVGWYRAFGGGTEVVVK | 0.247 | 27 | 67 | 87 | 89 | 95 | 0 | 3.9 | –
P013.S.01.B.B04 (antibody, V domains shown, rabbit monoclonal antibody; also called P013.A.00086.E02) VH: QSVEESGGRLVTPGTPLTLTCTVSGIDLDNYAMGWVRQAPGKGLEYIGVISSDGFFYDASWAKGRFTISKASSTTVDLKMTGLTPEDTATYFCARDRGTSTGSLDLWGQGTLVTVSS VL: ALVMTQTPASVSEPVGGTVTIKCQASENIGNGLAWYQQKPGQPPNLLIYGASTLASGVPSRFSGSGYGTEFTLTVSDLESGDAATYYCQCTYWNPDYIGGAFGGGTEVVVT | 0.042 | 42 | 83 | 93 | 99 | 97 | 0.5 | 3.5 | –

Now from value to binder:

EC50 (rhIL-1RAcP/Fc Chimera [1]) [µg/mL] | functional reporter gene assay (% inhibition), 0.04 µg/mL mAb [2] [%] | functional reporter gene assay (% inhibition), 0.2 µg/mL mAb [2] [%] | functional reporter gene assay (% inhibition), 1 µg/mL mAb [2] [%] | functional reporter gene assay (% inhibition), 5 µg/mL mAb [2] [%] | primary supernatant functional assay (% inh.), NF-kB luciferase reporter [2] [%] | mu-IL1RaP ELISA (OD) (mIL1RAcP-Fc [3]) | hu-IL1RaP ELISA (OD) (rhIL-1RAcP/Fc Chimera [4]) | EC50 (mIL1RAcP-Fc [5]) [µg/mL] | Binder
– | 15 | 5 | 11 | -2 | 40 | 0.4 | 0.1 | 0.044 | P013.S.02.B.F05 (antibody, V domains shown, rabbit monoclonal antibody; also called P013.A.00109.B04) VH: RSLEESGGDLVKPGTSLTLTCTASGFSFSGNYYMCWVRQAPGKGLEWIACIVVGSGGNTYYAGWAKRRFTISKTSSTTVTLQMTSLTAADTATYFCASGSYDDYGDYWYFTLWGQGTLVTVSS VL: AIDMTQTPSPASAGVGDTVTINCQASENIYNFLAWYQQKPGHSPKLLIYVASKLASGVPSRFKGSGSGTQFTLTISDVQSDDAATYYCQQTYRYNDGDTAFGGGTEVVVK
0.137 | -6 | 14 | 56 | 86 | 79 | -0.1 | 3.7 | – | P013.S.02.B.E01 (antibody, V domains shown, rabbit monoclonal antibody; also called P013.A.00013.G07) VH: QSLEESGGRLVTPGTPLTLTCTVSGFSLSIYGMGWVRQAPGEGLEWIGSISSGGSTYYATWAKGRFTISKTSSTTLDLKITSPTTEDTATYFCVRSDGYTNGDYDTYFNLWGQGTLVTVS VL: DIVMTQTPASVSEPVGGTVTIRCQASQSISSWLSWYQQKPGQPPKLLIYQASALASGVSSRFIGSGYGTEFTLTISGVQSEDAATYYCQCTYGIGSNSDYGVAFGGGTEVVVK
0.59 | 0 | 14 | 21 | 68 | 85 | 0 | 3.3 | – | P013.S.02.B.E02 (antibody, V domains shown, rabbit monoclonal antibody; also called P013.A.00087.E09) VH: QSVEESGGRLVTPGTPLTLTCTVSGFSLNVYNMGWVRQAPGKGLEYIGIISSSGTTYYASWAKGRFTISKTSSTTVDLKITSLTTEDTATYFCARADGYTEGDYATYFNLWGQGTLVTVSS VL: DIVMTQTPASVSEPVGGTVTIKCQASQSITTWLAWYQQKPGQPPKLLIYQASALASGVSSRFIGSGYGTEFTLTISGVQSEDAATYYCQCTYGIGSGSSYGVAFGGGTEVVVK
